Data taken from the supplement of paper PMC9233669.
Variants at the floor of the assay were thinned out.

Legend:
biotinyl-Phe-oxazolone = experiment: self-aminoacylation, catalytic enhancement (BFO) (fold over background); higher = more active; k-Seq, kA / k0A0; sequences stand for … in GGGAAUGGAUCCACAUCUACGAAUUC…UUCACUGCAGACUUGACGAAGCUG
Outline: (§1)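 The uncatalyzed rate is the low-activity peak of a bimodal Gaussian fit, and catalytic enhancement is median kA divided by it. The kA values came from pseudo-first-order fits, with 1000 bootstraps, of per-sequence fraction reacted measured by streptavidin capture, triplicate qPCR and Illumina sequencing. Mutagenized RNA pools with a 21-nt variable region (0.43 μM) were reacted with each biotinyl-aminoacyl-oxazolone at 2–1250 μM in 50 μL HEPES/NaCl/KCl/MgCl2/CaCl2 buffer with 5% acetonitrile, pH 6.9–7.0, for 90 minutes at room temperature.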

biotinyl-Ile-oxazolone = experiment: self-aminoacylation, catalytic enhancement (BIO) (fold over background); higher = more active; k-Seq, kA / k0A0; sequences stand for … in GGGAAUGGAUCCACAUCUACGAAUUC…UUCACUGCAGACUUGACGAAGCUG
Outline: as §1

biotinyl-Met-oxazolone = experiment: self-aminoacylation, catalytic enhancement (BMO) (fold over background); higher = more active; k-Seq, kA / k0A0; sequences stand for … in GGGAAUGGAUCCACAUCUACGAAUUC…UUCACUGCAGACUUGACGAAGCUG
Outline: as §1

biotinyl-Val-oxazolone = experiment: self-aminoacylation, catalytic enhancement (BVO) (fold over background); higher = more active; k-Seq, kA / k0A0; sequences stand for … in GGGAAUGGAUCCACAUCUACGAAUUC…UUCACUGCAGACUUGACGAAGCUG
Outline: as §1

biotinyl-Leu-oxazolone = experiment: self-aminoacylation, catalytic enhancement (BLO) (fold over background); higher = more active; k-Seq, kA / k0A0; sequences stand for … in GGGAAUGGAUCCACAUCUACGAAUUC…UUCACUGCAGACUUGACGAAGCUG
Outline: as §1

biotinyl-Trp-oxazolone = experiment: self-aminoacylation, catalytic enhancement (BWO) (fold over background); higher = more active; k-Seq, kA / k0A0; sequences stand for … in GGGAAUGGAUCCACAUCUACGAAUUC…UUCACUGCAGACUUGACGAAGCUG
Outline: as §1

Sequence	self-aminoacylation (biotinyl-Phe-oxazolone)	self-aminoacylation (biotinyl-Ile-oxazolone)	self-aminoacylation (biotinyl-Met-oxazolone)	self-aminoacylation (biotinyl-Val-oxazolone)	self-aminoacylation (biotinyl-Leu-oxazolone)	self-aminoacylation (biotinyl-Trp-oxazolone)
CUUCCCCUGGUCAUCGAGUGA [Fam2.1 aminoacylation ribozyme variant]	40.1	3.23	5.92	3.42	6.32	7.51
CUUCGUCAAACAAUCGGUCUG [Fam1A.1 aminoacylation ribozyme variant]	9.15	1.87	1.65	1.55	1.62	2.23
CUUCUUCAAACAACCGGUCUG [Fam1A.1 aminoacylation ribozyme variant]	0.852	1.11	0.98	0.949	0.961	0.846
CUUCUUCAAACAAUAGGUCUG [Fam1A.1 aminoacylation ribozyme variant]	0.983	0.883	0.817	0.832	0.825	0.568
CUUCUUCAAACAAUCGGUCGG [Fam1A.1 aminoacylation ribozyme variant]	10.9	0.873	1.12	0.789	1.24	7.44
CUUCUUCAAACAAUCUGUCUG [Fam1A.1 aminoacylation ribozyme variant]	2.27	0.768	0.587	0.698	0.748	1.15
CUUCUUCAAACCAUCGGUCUG [Fam1A.1 aminoacylation ribozyme variant]	0.739	0.856	0.682	0.775	0.722	0.509
GAGUUUGCGAAUAGUCGCAAG [Fam3.1 aminoacylation ribozyme variant]	7.65	1.68	1.8	1.56	1.76	2.35
GAGUUUGCUAAUAGUCGCAAA [Fam3.1 aminoacylation ribozyme variant]	3.15	2.47	1.64	2.15	1.93	1.59
GAGUUUGCUAAUAGUCGCGAG [Fam3.1 aminoacylation ribozyme variant]	1.76	1.55	1.63	1.38	1.47	2.17
GAGUUUGCUUAUAGUCGCAAG [Fam3.1 aminoacylation ribozyme variant]	2.28	1.65	1.44	1.39	1.24	1.75
GCACACUACAAGCAAUCGGUC [Fam1B.1 aminoacylation ribozyme variant]	1.55	1.36	0.979	1.26	1.14	1.68
GCACACUGCAAGCAAUCGGUC [Fam1B.1 aminoacylation ribozyme variant]	1.77	2.14	1.87	2.12	1.87	2.4
GCACACUUCAAGCAAUCGGGC [Fam1B.1 aminoacylation ribozyme variant]	13.7	3.11	2.58	3.09	3.02	4.23
GCACACUUCAAGCAAUCGGUU [Fam1B.1 aminoacylation ribozyme variant]	4.75	3.38	2.66	2.86	3.33	6.83
GCACACUUCAAGCAUUCGGUC [Fam1B.1 aminoacylation ribozyme variant]	4.96	2.57	2.09	2.59	2.17	3.5
GCACACUUCCAGCAAUCGGUC [Fam1B.1 aminoacylation ribozyme variant]	1.1	2.01	1.55	2.31	1.73	2.11
GCCCACUUCAAGCAAUCGGUC [Fam1B.1 aminoacylation ribozyme variant]	24.1	1.42	1.27	1.67	1.77	18.7
GCUCACUUCAAGCAAUCGGUC [Fam1B.1 aminoacylation ribozyme variant]	16.7	1.69	1.58	1.67	1.77	10.9
GGACUUCAAACAAUCGGUCUG [Fam1A.1 aminoacylation ribozyme variant]	122	2.34	2	1.88	2.75	47.1
GGUACCCUGGUCAUCGAGUGA [Fam2.1 aminoacylation ribozyme variant]	38.7	6.93	11.2	6.65	12.6	16.4
